According to paper PMC5489123 (Journal of molecular biology, 2010):
Ends that are not written are not given here. * marks the point of attachment. Dansyl = CN(C)c1cccc2c(S(=O)(=O)*)cccc12

How the values were obtained:
Tiam1 PDZ domain [1] = molecular target: T1, Tiam1 PDZ domain (Homo sapiens, UniProt Q13009); test: Fluorescence anisotropy binding assay of dansylated peptides
Tiam1 PDZ domain [2] = molecular target: T1, Tiam1 PDZ domain; test: NMR chemical shift titration of N-acetylated peptides; assay type: binding; settings: Kd (Model)/Kd (peptide); both Kd by NMR titration
[3] = molecular target: T2, Tiam1 PDZ domain (residues 841-930) (human, UniProt Q13009 841-930); test: fluorescence polarisation
T2 sequence (Q13009 841-930): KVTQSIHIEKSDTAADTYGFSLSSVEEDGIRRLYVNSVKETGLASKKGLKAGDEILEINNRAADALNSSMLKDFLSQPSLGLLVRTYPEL

[4] = molecular target: T2, Tiam1 PDZ domain (residues 841-930); test: NMR titration
[5] = molecular target: T2, Tiam1 PDZ domain (residues 841-930); test: fluorescence polarisation; remark: listed apart in the source

T1 sequence (Q13009 841-930): as above

Ac-NKDKEYYV [Neurexin1]
Kd (Tiam1 PDZ domain [1]): > 100 µM
Fold versus Model (Tiam1 PDZ domain [2]): 0.05

Dansyl-SSRKEYYA [Model Tiam1-binding peptide, N-terminally dansylated]
Kd [3]: > 100 µM

Ac-NKDKEYYV [Neurexin-1 C-terminal peptide (residues 1470-1477), N-terminally acetylated (Ac-NKDKEYYV)]
Kd [4]: 2400 ± 250 µM

Dansyl-ENQKEYFF [Caspr4 C-terminal peptide (residues 1301-1308), N-terminally dansylated (dan-ENQKEYFF)]
Kd [5]: 16.8 ± 5.4 µM

NKDKEYYV-OH (not fully specified (N-terminus)) [Neurexin-1 C-terminal peptide (residues 1470-1477), N-terminally dansylated]
Kd [3]: > 100 µM

Dansyl-TKQEEFYF [Syndecan1(A→F) peptide, dansylated (dan-TKQEEFYF)]
Kd [5]: 55.7 ± 3.6 µM

Ac-SSRKEYYA [Model Tiam1-binding peptide, N-terminally acetylated (Ac-SSRKEYYA)]
Kd [4]: 112 ± 15 µM

Dansyl-TKQEEFYA [Syndecan1 C-terminal peptide (residues 303-310), N-terminally dansylated (dan-TKQEEFYA)]
Kd [5]: 26.9 ± 0.9 µM

Dansyl-ENQKEYFA [Caspr4(F→A) peptide, dansylated (dan-ENQKEYFA)]
Kd [5]: 64.8 ± 5.9 µM
